Measurements: patent US20120288494A1 (published 2012)

T1: human IL-12 p70 (human, UniProt P29460 23-328; P29459 23-219)
T1 construct: also called hIL-12; IL-12 p70 (p40/p35)
T1 sequence 1: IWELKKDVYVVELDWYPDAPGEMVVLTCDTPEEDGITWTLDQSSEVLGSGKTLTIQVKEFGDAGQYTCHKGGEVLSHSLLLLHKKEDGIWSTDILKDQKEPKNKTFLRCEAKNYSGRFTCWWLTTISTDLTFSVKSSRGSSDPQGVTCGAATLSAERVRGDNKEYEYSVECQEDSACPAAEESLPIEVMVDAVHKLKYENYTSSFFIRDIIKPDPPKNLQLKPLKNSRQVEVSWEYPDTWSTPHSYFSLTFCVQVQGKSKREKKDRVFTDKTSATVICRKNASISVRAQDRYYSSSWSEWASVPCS
T1 sequence 2: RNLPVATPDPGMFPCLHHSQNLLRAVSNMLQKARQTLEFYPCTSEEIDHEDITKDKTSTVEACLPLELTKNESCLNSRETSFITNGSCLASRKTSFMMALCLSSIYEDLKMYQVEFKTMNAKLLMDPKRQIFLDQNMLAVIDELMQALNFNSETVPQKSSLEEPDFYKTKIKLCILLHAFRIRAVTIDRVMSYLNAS

T2: Human Chimera 1 (human IL-12 p40 Y16R) (human, UniProt P29460 23-328)
T2 construct: Predominantly human p40 with the rat residue; HEK293.F supernatant; also called Site 7a
T2 sequence: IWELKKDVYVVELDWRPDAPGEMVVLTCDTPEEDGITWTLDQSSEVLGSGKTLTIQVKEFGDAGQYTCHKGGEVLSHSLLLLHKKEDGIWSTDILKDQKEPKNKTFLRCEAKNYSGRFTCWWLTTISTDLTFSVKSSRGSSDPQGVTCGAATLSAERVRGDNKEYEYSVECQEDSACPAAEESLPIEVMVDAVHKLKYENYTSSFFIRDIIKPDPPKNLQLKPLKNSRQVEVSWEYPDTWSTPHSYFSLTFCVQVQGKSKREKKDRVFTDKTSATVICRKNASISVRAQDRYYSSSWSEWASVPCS

T3: Human Chimera 2 (human IL-12 p40 D87N) (human, UniProt P29460 23-328)
T3 construct: Predominantly human p40 with the rat residue; HEK293.F supernatant; also called Site 7b
T3 sequence: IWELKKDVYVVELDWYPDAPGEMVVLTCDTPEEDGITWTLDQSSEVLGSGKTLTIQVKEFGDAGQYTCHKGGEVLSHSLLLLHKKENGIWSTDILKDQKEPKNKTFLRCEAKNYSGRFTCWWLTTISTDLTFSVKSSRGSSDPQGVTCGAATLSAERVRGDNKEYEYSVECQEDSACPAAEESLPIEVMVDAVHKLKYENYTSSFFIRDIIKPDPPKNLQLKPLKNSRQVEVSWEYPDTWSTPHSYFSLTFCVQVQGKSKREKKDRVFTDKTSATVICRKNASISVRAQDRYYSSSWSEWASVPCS

T4: Human Chimera 9 (human IL-12 p40 G35D & G61L) (human, UniProt P29460 23-328)
T4 construct: Predominantly human p40 with rat residues; the two residues were only mutated together; also called Sites 9, 10
T4 chain: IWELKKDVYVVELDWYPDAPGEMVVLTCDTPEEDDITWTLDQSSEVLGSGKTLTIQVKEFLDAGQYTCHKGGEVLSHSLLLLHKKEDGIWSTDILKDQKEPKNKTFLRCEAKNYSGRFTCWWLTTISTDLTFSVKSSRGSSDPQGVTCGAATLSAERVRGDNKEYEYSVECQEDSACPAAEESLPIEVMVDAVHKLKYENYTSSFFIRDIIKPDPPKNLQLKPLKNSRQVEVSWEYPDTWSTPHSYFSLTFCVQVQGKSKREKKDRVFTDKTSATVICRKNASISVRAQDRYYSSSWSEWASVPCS


How the values were obtained:
[1] = target: T1, human IL-12 p70; assay: method not stated in the sentence (Biacore named in Example 1A)
[2] = target: T2, Human Chimera 1 (human IL-12 p40 Y16R); assay: SPR (Biacore), mAb immobilised, chimera supernatant injected
Procedure: (§1) Specifically, antibody was covalently linked via free amine groups to the Biacore chip dextran matrix by first activating carboxyl groups on the matrix with 100 mM N-hydroxysuccinimide (NHS) and 400 mM N-Ethyl-N′-(3-dimethylaminopropyl)-carbodiimide hydrochloride (EDC). This was completed across four different flow cells. […] Typically, 5000 resonance units were immobilized. Unreacted matrix EDC-esters were deactivated by an injection of 1 M ethanolamine.
(§2) To ascertain the epitope pattern of several different monoclonal antibodies against IL-12p40 supernatant samples, a direct binding assay was conducted. Aliquots of recombinant human IL-12p40 (100 nM) were injected across covalently immobilized antibody on the Biacore dextran chip biosensor surface at a flow rate of 25 mL/min. Before injection of the antigen and immediately afterward, HBS-EP buffer alone flowed through each flow cell. […] The response was measured in Resonance Units (RU's). […] The covalently immobilized antibody-coupled surfaces were completely regenerated using 10 mM HCl (5 min contact time) and retained their full binding capacity over twenty cycles.

[3] = target: T3, Human Chimera 2 (human IL-12 p40 D87N); assay: as above
Procedure: as §1, §2

[4] = target: T4, Human Chimera 9 (human IL-12 p40 G35D & …); assay: SPR (Biacore), mAb immobilised; grade of the mutation's effect: - = no effect
Procedure: as §1, §2

[5] = target: T1, human IL-12 p70; assay: not stated in the sentence (FIG. 2)

Binder	Kd [1]	binding result [2]	binding result [3]	binding result [4]	fold increase in efficacy over Joe 9 [5]
J695 (antibody, IgG1, V domains shown, Recombinant human mAb from CHO cells, IgG1 heavy and lambda light chain constant regions; also called human mAb J695) VH: QVQLVESGGGVVQPGRSLRLSCAASGFTFSSYGMHWVRQAPGKGLEWVAFIRYDGSNKYYADSVKGRFTISRDNSKNTLYLQMNSLRAEDTAVYYCKTHGSHDNWGQGTMVTVSS VL: QSVLTQPPSVSGAPGQRVTISCSGSRSNIGSNTVKWYQQLPGTAPKLLIYYNDQRPSGVPDRFSGSKSGTSASLAITGLQAEDEADYYCQSYDRYTHPALLFGTGTKVTVLG	0.102 nM	no binding	no binding	binds	
103-14 (antibody, V domains shown) VH: QVQLVQSGGGVVQPGRSLRLSCAASGFTFSSYGMHWVRQAPGKGLEWVAFIRYDGSNKYYADSVKGRFTISRDNSKNTLYLQMKSLRAEDTAVYYCKTHGSHDNWGQGTMVTVSS VL: SYVLTQPPSVSGTPGQRVTISCSGGRSNIGSNTVKWYQQLPGTAPKLLIYGNDQRPSGVPDRFSGSKSGTSASLAITGVQAEDEADYYCQSYDRGFTGSMVFGTGTKVTVL					1000 fold
